No end group written: not given here.
How the values were obtained:
AαB56γCα PP2A holoenzyme = AαB56γCα PP2A holoenzyme (human, UniProt P30153 2-589; Q13362 1-524; P67775 1-309); assay: SEC + other: dynamic light scattering
[1] = target: FLAG-tagged MBP-Sgo1(47-105) (human, UniProt Q5FBB7 47-105); assay: pull-down
[2] = target: FLAG-Sgo1(51-105) peptide (human, UniProt Q5FBB7 51-105); assay: pull-down
[3] = target: FLAG-tagged MBP-Sgo1(47-105) Y57A/N60A (dimerization assay) (human, UniProt Q5FBB7 47-105, Y57A | N60A); assay: pull-down
[4] = target: FLAG-tagged MBP-Sgo1(47-105) N61I (dimerization assay) (human, UniProt Q5FBB7 47-105, N61I); assay: pull-down
[5] = target: FLAG-tagged MBP-Sgo1(47-105) Y57A/K62A (dimerization assay) (human, UniProt Q5FBB7 47-105, Y57A | K62A); assay: pull-down
[6] = target: FLAG-tagged MBP-Sgo1(47-105) N60A/K62A (dimerization assay) (human, UniProt Q5FBB7 47-105, N60A | K62A); assay: pull-down
PP2A C subunit (Cα) = PP2A C subunit (Cα) (human, UniProt P67775 1-309); assay: crystal structure
Chain of PP2A C subunit (Cα) (P67775 whole entry): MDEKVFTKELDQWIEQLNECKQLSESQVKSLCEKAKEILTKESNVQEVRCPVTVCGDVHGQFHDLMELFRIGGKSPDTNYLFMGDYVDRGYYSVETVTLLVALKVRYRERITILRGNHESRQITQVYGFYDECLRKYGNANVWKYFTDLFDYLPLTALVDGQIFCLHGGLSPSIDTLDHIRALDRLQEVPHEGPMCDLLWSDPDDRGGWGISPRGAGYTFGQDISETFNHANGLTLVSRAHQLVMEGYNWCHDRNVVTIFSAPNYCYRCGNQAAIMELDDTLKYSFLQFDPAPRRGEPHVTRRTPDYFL

Chain of AαB56γCα PP2A holoenzyme (P30153 2-589, chain 1 of 3): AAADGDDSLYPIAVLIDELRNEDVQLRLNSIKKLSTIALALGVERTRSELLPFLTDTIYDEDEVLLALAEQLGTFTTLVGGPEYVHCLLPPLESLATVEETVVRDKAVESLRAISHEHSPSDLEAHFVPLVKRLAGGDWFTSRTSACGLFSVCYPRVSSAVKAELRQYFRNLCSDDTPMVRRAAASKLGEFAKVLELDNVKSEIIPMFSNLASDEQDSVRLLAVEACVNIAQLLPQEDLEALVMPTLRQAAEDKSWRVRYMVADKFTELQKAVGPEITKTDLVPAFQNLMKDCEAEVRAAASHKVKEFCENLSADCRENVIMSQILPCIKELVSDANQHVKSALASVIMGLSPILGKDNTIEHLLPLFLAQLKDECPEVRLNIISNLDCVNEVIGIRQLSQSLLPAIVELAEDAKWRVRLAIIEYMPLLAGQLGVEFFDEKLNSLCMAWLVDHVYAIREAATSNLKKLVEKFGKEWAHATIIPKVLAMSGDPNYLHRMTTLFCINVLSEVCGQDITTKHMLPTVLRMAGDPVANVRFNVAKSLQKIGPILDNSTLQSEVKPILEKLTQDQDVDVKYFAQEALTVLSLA
Chain of AαB56γCα PP2A holoenzyme (Q13362 whole entry, chain 2 of 3): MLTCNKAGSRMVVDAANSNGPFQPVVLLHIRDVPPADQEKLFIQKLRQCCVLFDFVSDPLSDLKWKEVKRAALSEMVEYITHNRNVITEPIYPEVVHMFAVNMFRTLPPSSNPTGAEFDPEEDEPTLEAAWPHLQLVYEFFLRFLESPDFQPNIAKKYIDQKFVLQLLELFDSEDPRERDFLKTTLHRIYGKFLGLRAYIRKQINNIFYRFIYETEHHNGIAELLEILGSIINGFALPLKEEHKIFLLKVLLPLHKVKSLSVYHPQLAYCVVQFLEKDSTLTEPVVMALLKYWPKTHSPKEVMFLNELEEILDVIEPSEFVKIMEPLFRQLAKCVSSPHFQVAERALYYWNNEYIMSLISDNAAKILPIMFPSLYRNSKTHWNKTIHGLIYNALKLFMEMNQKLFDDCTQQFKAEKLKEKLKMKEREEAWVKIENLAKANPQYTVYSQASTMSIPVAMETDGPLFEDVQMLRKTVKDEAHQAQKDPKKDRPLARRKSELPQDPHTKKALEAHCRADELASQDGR
Chain of AαB56γCα PP2A holoenzyme (P67775 whole entry, chain 3 of 3): as the sequence (P67775 whole entry) above

B1: MBP-Sgo1(51-105) (domain or fragment, human, UniProt Q5FBB7 51-105, looked up)
chain: STLLKNYQDNNKMLVLALENEKSKVKEAQDIILQLRKECYYLTCQLYALKGKLTS
stoichiometry N (AαB56γCα PP2A holoenzyme): 2 Sgo1 per PP2A holoenzyme
binding result [1]: binds

B2: Sgo1(51-105) (peptide, UniProt Q5FBB7 51-105, looked up)
chain: STLLKNYQDNNKMLVLALENEKSKVKEAQDIILQLRKECYYLTCQLYALKGKLTS
stoichiometry N (AαB56γCα PP2A holoenzyme): 2 Sgo1 per PP2A holoenzyme
binding result [2]: binds

B3: MBP-Sgo1(51-105) Y57A/N60A, untagged (dimerization assay) (domain or fragment, human, UniProt Q5FBB7 51-105, looked up)
chain: STLLKNAQDANKMLVLALENEKSKVKEAQDIILQLRKECYYLTCQLYALKGKLTS
modifications: cysteine pairing not given here; also: MBP fusion
binding result [3]: binds

B4: MBP-Sgo1(51-105) N61I, untagged (dimerization assay) (domain or fragment, human, UniProt Q5FBB7 51-105, looked up)
chain: STLLKNYQDNIKMLVLALENEKSKVKEAQDIILQLRKECYYLTCQLYALKGKLTS
modifications: cysteine pairing not given here; also: MBP fusion
binding result [4]: binds

B5: MBP-Sgo1(51-105) Y57A/K62A, untagged (dimerization assay) (domain or fragment, human, UniProt Q5FBB7 51-105, looked up)
chain: STLLKNAQDNNAMLVLALENEKSKVKEAQDIILQLRKECYYLTCQLYALKGKLTS
modifications: cysteine pairing not given here; also: MBP fusion
binding result [5]: binds

B6: MBP-Sgo1(51-105) N60A/K62A, untagged (dimerization assay) (domain or fragment, human, UniProt Q5FBB7 51-105, looked up)
chain: STLLKNYQDANAMLVLALENEKSKVKEAQDIILQLRKECYYLTCQLYALKGKLTS
modifications: cysteine pairing not given here; also: MBP fusion
binding result [6]: binds

STLLKNYQDNNKMLVLALENEKSKVKEAQDIILQLRKECYYLTCQL (peptide, UniProt Q5FBB7 51-96, looked up) [Sgo1(51-96) peptide]
binding result (PP2A C subunit (Cα)): binds
